Data published in publication PMC4974474.

How the values were obtained:
POC1+POC2+POC3 assembly = assay: SAXS; POC1+POC2+POC3 (1:1:1) at 50 μM; beamline B21, Diamond Light Source
POC3 = assay: SAXS; each POC alone, 50 μM; oligomeric state from the total scattering
POC1 = assay: as above
POC2 = assay: as above

POC1+POC2+POC3 assembly (complex)
stoichiometry N (POC1+POC2+POC3 assembly): 2

POC3
stoichiometry N (POC3): 3

POC1
stoichiometry N (POC1): 2

POC2
stoichiometry N (POC2): 3
